# Reference: US20200038462A1, “METHODS AND COMPOSITIONS OF OTC CONSTRUCTS AND VECTORS” (priority 2018, published 2020)
# B1: CO9-1: hOTC construct; CO9 re-optimized by GeneArt, SEQ ID NO:9 (nucleic acid)
# DNA: GTCGACGCCGCCACCATGCTGTTTAATCTGAGAATCCTGCTGAACAATGCTGCTTTCCGCAATGGGCACAACTTTATGGTCCGAAACTTCCGATGTGGACAGCCTCTGCAGAACAAGGTGCAGCTGAAGGGCCGGGACCTGCTGACCCTGAAGAATTTCACAGGCGAGGAGATCAAATACATGCTGTGGCTGAGCGCCGATCTGAAGTTTAGGATCAAGCAGAAGGGCGAGTATCTGCCACTGCTGCAGGGCAAGTCCCTGGGCATGATCTTCGAGAAGCGGAGCACCCGGACAAGACTGAGCACCGAGACAGGATTCGCACTGCTGGGAGGACACCCATGCTTTCTGACAACACAGGACATCCACCTGGGCGTGAACGAGTCTCTGACCGACACAGCACGGGTGCTGAGCTCCATGGCAGATGCCGTGCTGGCCAGAGTGTACAAGCAGAGCGACCTGGATACCCTGGCCAAGGAGGCCTCCATCCCCATCATCAATGGCCTGTCTGACCTGTATCACCCAATCCAGATCCTGGCCGATTACCTGACCCTGCAGGAGCACTATTCTAGCCTGAAGGGCCTGACACTGAGCTGGATCGGCGACGGCAACAATATCCTGCACAGCATCATGATGTCCGCCGCCAAGTTTGGAATGCACCTGCAGGCAGCAACCCCAAAGGGATACGAGCCCGATGCCTCCGTGACAAAGCTGGCCGAGCAGTATGCCAAGGAGAACGGCACCAAGCTGCTGCTGACAAATGACCCACTGGAGGCAGCACACGGAGGAAACGTGCTGATCACCGATACATGGATCTCTATGGGCCAGGAGGAGGAGAAGAAGAAGCGGCTGCAGGCCTTCCAGGGCTACCAGGTGACCATGAAGACAGCCAAGGTGGCCGCCTCTGATTGGACCTTTCTGCACTGTCTGCCCCGGAAGCCTGAGGAGGTGGACGATGAGGTGTTCTATTCCCCTCGGAGCCTGGTGTTCCCAGAGGCAGAGAATCGCAAGTGGACAATCATGGCCGTGATGGTCTCCCTGCTGACTGACTACTCCCCACAGCTGCAGAAGCCCAAGTTTTGATAAGAATTC
# B2: CO9-2: hOTC construct; CO9 re-optimized by IDT, SEQ ID NO:10 (nucleic acid)
# DNA: GTCGACGCCGCCACCATGCTCTTCAATCTCCGAATACTCCTGAATAATGCGGCATTCAGAAATGGGCACAATTTTATGGTGCGAAATTTTCGATGTGGGCAGCCCTTGCAAAATAAAGTACAACTTAAAGGCAGAGATCTTCTTACGCTCAAAAACTTTACCGGCGAAGAGATTAAGTATATGTTGTGGCTGTCTGCTGACCTTAAATTCCGAATAAAACAGAAAGGCGAATACCTTCCGCTCCTCCAAGGGAAATCTCTTGGGATGATTTTCGAGAAGAGATCTACGCGCACGCGGCTTTCAACGGAAACTGGATTCGCACTCTTGGGCGGCCACCCATGTTTTCTGACTACTCAAGATATTCACTTGGGAGTAAATGAGTCACTTACTGACACGGCAAGAGTGCTCTCTAGCATGGCTGATGCAGTGCTGGCTAGAGTCTATAAACAATCCGACCTGGATACACTCGCCAAGGAAGCTTCAATACCAATAATCAACGGGTTGTCTGACTTGTACCACCCTATCCAAATCTTGGCCGATTATTTGACACTCCAGGAACACTACTCAAGTCTGAAGGGACTTACGCTTAGCTGGATAGGTGATGGTAACAACATCCTTCATAGCATTATGATGTCAGCCGCCAAATTCGGCATGCATCTGCAAGCAGCGACTCCCAAGGGCTATGAGCCTGATGCCTCAGTCACCAAACTGGCGGAGCAGTACGCTAAAGAGAATGGGACGAAGCTTTTGCTGACGAACGATCCCCTGGAGGCGGCTCACGGGGGAAATGTGCTTATCACGGATACCTGGATAAGTATGGGGCAGGAGGAAGAAAAAAAAAAGCGATTGCAAGCCTTTCAAGGTTACCAGGTTACAATGAAAACTGCGAAAGTCGCCGCATCTGACTGGACTTTTCTGCACTGTCTTCCGAGAAAGCCGGAAGAGGTGGACGACGAAGTGTTCTACTCTCCGCGCTCTCTCGTGTTTCCTGAAGCAGAGAACCGAAAGTGGACCATAATGGCGGTAATGGTCAGCCTCTTGACTGATTATTCCCCTCAGCTGCAGAAGCCAAAGTTTTGATAAGAATTC
# B3: CO6-1: hOTC construct; CO6 re-optimized by GeneArt, SEQ ID NO:6 (nucleic acid)
# DNA: GTCGACGCCGCCACCATGCTGTTCAACCTGCGGATCCTGCTGAACAACGCCGCCTTCAGAAACGGCCACAACTTCATGGTCCGAAACTTCAGATGCGGCCAGCCTCTGCAGAACAAGGTGCAGCTGAAGGGCAGAGATCTGCTGACCCTGAAGAACTTCACCGGCGAAGAGATCAAATACATGCTGTGGCTGAGCGCCGACCTGAAGTTCCGGATTAAGCAGAAGGGCGAGTACCTGCCACTGCTGCAGGGAAAGTCTCTGGGCATGATCTTCGAGAAGCGGAGCACCAGAACCAGACTGAGCACCGAGACAGGCTTTGCCCTGCTCGGAGGACACCCCTGCTTTCTGACAACACAGGATATCCACCTGGGCGTGAACGAGAGCCTGACCGATACAGCCAGAGTGCTGAGCAGCATGGCTGATGCCGTGCTGGCCAGAGTGTACAAGCAGAGCGATCTGGACACCCTGGCCAAAGAGGCCAGCATTCCCATCATCAACGGCCTGAGCGACCTGTATCACCCCATCCAGATCCTGGCCGACTACCTGACACTGCAAGAGCACTACAGCAGCCTGAAGGGACTGACCCTGTCTTGGATCGGCGACGGCAACAACATCCTGCACTCTATTATGATGAGCGCCGCCAAGTTCGGAATGCACCTGCAGGCCGCTACACCCAAGGGCTATGAGCCTGATGCCAGCGTGACAAAGCTGGCCGAGCAGTACGCCAAAGAGAACGGCACAAAGCTGCTGCTGACCAACGATCCCCTGGAAGCTGCCCACGGCGGCAATGTGCTGATCACCGATACCTGGATCTCTATGGGCCAAGAGGAAGAGAAGAAGAAGCGGCTGCAGGCCTTCCAGGGCTACCAAGTGACAATGAAGACCGCCAAGGTGGCCGCCAGCGATTGGACCTTTCTGCACTGCCTGCCTCGGAAGCCTGAAGAGGTGGACGACGAGGTGTTCTACAGCCCTAGAAGCCTGGTGTTCCCCGAGGCCGAGAACAGAAAGTGGACCATCATGGCTGTGATGGTGTCCCTGCTGACCGACTACTCTCCCCAGCTGCAGAAGCCCAAGTTCTGATAAGAATTC
# System: HUH7 hepatocellular carcinoma cell line
# Assay: OTC protein expression in transfected HUH7 cells, Western blot
# Assay type: cell-based, human
# Settings: FIGS. 14-15
# Excerpt: The wt-hOTC was codon-optimized (CO) with different algorithms. The optimization process is aimed at improving translation and stability of the OTC mRNA by changing the nucleotide sequence while keeping the amino acid primary sequence unvaried. The wild-type OTC cDNA sequence and the codon-optimized (CO) LW4 sequence from WO 2015/138357 patent A2 (Wang L., Wilson J. M.) were also synthesized, to be used as comparison control (CO1). The nucleotide sequence of the different CO cDNAs differs with a range of 30-20% from the WT cDNA sequence. The vectors were then packaged into the AAV8 serotype and used to transduce Huh7 cells. Huh7 cells, co-transfected with the OTC constructs and the pGG2-eGFP plasmid (to normalize for transfection efficiency), were used to generate total RNA and proteins. mRNA, protein, and activity levels were analyzed using qRT-PCR and Western blotting.
# The human hepatocellular carcinoma cell line HUH7 was used to evaluate the expression levels of AAV8-hOTC-CO constructs. The AAV8-hOTC-CO1 (C01), AAV8-hOTC-CO2 (CO2), AAV8-hOTC-CO3 (CO3), AAV8-hOTC-006 (CO6), AAV8-hOTC-CO7 (CO7), AAV8-hOTC-009 (CO9) construct plasmids, together with a pGFP plasmid as an internal control, were transiently co-transfected in HUH7 cells with Lipofectamine (Lipofectamine 2000, Thermo Fisher Scientific). Twenty-four hours post-transfection, total protein lysates were prepared and analyzed for OTC expression by Western blot analysis.
row,Molecule,OTC protein expression levels compared to hOTC-wt (in words)
1,B1,significantly reduced
2,B2,significantly reduced
3,B3,significantly reduced
